Reference: patent publication US20050079543A1

Assays:
[1] = molecular target: Stat84, activated (from IFN-γ-treated C84 or Cmx cells) (human) (UniProt P42224); assay: cell-based or functional assay
[2] = molecular target: Stat91L, activated (from IFN-γ-treated C91L or Cmx cells) (human) (UniProt P42224); assay: cell-based or functional assay
[3] = molecular target: tyrosine phosphorylated Stat91 (human) (UniProt P42224); assay: glycerol gradient sedimentation
[4] = molecular target: tyrosine phosphorylated Stat91 (human) (UniProt P42224); assay: native gel electrophoresis, Ferguson plots

Chain of Stat91L, activated (from IFN-γ-treated C91L or Cmx cells) (human) (P42224 2-750, stated change not applied): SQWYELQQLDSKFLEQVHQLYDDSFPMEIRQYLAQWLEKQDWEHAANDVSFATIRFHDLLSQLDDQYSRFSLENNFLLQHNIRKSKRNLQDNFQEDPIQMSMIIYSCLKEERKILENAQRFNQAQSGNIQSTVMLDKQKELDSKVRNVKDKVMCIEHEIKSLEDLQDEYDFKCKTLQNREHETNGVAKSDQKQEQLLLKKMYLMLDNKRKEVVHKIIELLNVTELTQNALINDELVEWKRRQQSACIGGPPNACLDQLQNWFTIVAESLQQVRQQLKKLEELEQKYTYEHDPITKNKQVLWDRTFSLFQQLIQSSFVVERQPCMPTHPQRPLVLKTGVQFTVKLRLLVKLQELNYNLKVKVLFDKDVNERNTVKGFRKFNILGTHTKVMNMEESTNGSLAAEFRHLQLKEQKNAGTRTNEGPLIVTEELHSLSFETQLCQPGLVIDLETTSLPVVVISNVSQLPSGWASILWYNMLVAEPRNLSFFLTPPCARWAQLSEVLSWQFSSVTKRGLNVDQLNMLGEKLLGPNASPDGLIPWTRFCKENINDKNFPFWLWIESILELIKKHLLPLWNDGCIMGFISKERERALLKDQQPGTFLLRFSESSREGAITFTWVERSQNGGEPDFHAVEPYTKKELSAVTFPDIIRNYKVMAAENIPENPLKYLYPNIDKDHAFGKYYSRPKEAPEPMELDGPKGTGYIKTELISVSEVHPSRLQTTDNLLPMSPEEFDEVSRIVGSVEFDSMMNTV
Chain of Stat84, activated (from IFN-γ-treated C84 or Cmx cells) (human) (P42224 2-712 limits assumed): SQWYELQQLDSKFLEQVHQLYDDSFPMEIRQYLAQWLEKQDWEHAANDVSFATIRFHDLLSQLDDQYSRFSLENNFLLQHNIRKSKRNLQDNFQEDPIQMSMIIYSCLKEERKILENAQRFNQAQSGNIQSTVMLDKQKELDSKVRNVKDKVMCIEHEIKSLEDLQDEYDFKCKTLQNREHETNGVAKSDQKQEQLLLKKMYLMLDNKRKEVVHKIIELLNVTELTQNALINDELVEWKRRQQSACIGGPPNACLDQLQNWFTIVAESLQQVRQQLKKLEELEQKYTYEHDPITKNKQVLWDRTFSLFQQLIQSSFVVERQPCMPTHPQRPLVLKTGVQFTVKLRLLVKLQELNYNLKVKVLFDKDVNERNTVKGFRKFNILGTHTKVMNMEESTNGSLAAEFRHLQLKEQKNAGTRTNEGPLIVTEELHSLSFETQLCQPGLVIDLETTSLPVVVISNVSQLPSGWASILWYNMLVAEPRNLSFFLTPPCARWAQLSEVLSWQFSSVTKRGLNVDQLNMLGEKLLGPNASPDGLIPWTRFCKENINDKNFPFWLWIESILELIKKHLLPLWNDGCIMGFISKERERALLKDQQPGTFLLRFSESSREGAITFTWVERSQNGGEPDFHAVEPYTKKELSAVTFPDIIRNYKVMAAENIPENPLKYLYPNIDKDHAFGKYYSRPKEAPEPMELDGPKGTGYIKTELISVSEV

Substance | fusion protein concentration that promoted heterodimer formation (gel mobility shift) [1] [µM] | fusion protein concentration that promoted heterodimer formation (gel mobility shift) [2] [µM] | native molecular weight [3] [kD] | native molecular weight [4] [kD]
GST-91SH2 (glutathione-S-transferase fused to the Stat91 SH2 domain, amino acids 573 to 672) (from UniProt P42224 573-672) | 0.5 to 5 | 0.5 to 5 | – | –
tyrosine phosphorylated Stat91 (from UniProt P42224 2-750) | – | – | 180 | 180
